Experimental data as given in the DeepSol protein solubility set.

Assay: soluble on expression in E. coli; label from the status in PepcDB or PDB records

Sequence	soluble on expression in E. coli
MGSSHHHHHHGKTIFVIVPTNEEQVAFLEALAKQDELNFDWQNPPTEPGQPVVILIPSDMVEWFLEMLKAKGIPFTVYVEEGGSENLYFQGGGGGGAATVTDLKNAIKNELYRIDIGMTDFYSSLSVSPTVQQQYCTAAITSRAAGLSLTMESLSSPYGVLATEYGFLIYKDTFVFGPSIKLIGASAWPNGTLTTDIQSGRHILVPYLTNTVVFVTGVIENEDGRQNILPMMRLMMVDSYLCAHMHMNVANLYRKTFRTAFAELA	not soluble
MGSDKIHHHHHHMASESWMKTQAPDPTNLPAEINPEVPSIARVYDYFLGGKDNFPADRAAAAAVEKVFPQGKQLGRESRMLLRRATRELVRAGVRQFLDIGSGLPTAGNVHEIAHEIDPEVRVVYIDNDPVVLAHGRALLADEVTTTVVQADLRHPDGIFDNPEVRALLDFDQPVAVFLASILHHFDDSDDPWALSRKIRDRISSGSYMLITHFYDSGDPVCREVEQALLEGGLGSGWFRTKEQIERFFEGMDVLEPGVVAANEWRPDAETPTDSTTHHLLAGGLARKP	not soluble
MSLTQLQITAFGDPSVLRLNPSLDKVPADGEVRVRICFAGVNPIDAKTRAGLGWAAAQNKDKLPWTPGYDVAGVVEKIGPGVTALAEGDRVCGMVGFPLAAGGYGESVVAREEELVRLEDIGLRQGAALPLAGLTAWQGLFEHGALKAGQRVLILAGAGGVGHLAVQFASAYGAEVVATASRDNHSFLHGLGASRMVDYHDADWVAQVGQVELVLDLVGGESGKAALACVKPGGRLVTVPTISAQQIKDAAAGSAIEVLGMLVHPDRQQLSQMLTLLRQGEVQVTVAGEYALAEGALAHQAIEQGHVRGKLLLRMPAAEGHHHHHH	soluble
FGIIRGLMMHVTLVEINVHDDKVEQFIDVFRQNHLGSIKEPGNLRFDVLQDPQVLTRFYIYEAYVDEQAVAFHKTTPHYKTCVEQLEPLMTGPRTKKVFMGL	not soluble
GSHMNGEPDIAQLKGLSPSQRQAYAVQLKNRGNHFFTAKNFNEAIKYYQYAIELDPNEPVFYSNISACYISTGDLEKVIEFTTKALEIKPDHSKALLRRASANESLGNFTDAMFDLSVLSLNGDFDGASIEPMLERNLNKQAMKVLNENLSKDEGRGSQVLPSNTSLASFFGIFDSHLEVSSVNTSSNYDTAYALLSDALQRLYSATDEGYLVANDLLTKSTDMYHSLLSANTVDDPLRENAALALCYTGIFHFLKNNLLDAQVLLQESINLHPTPNSYIFLALTLADKENSQEFFKFFQKAVDLNPEYPPTYYHRGQMYFILQDYKNAKEDFQKAQSLNPENVYPYIQLACLLYKQGKFTESEAFFNETKLKFPTLPEVPTFFAEILTDRGDFDTAIKQYDIAKRLEEVQEKIHVGIGPLIGKATILARQSSQDPTQLDEEKFNAAIKLLTKACELDPRSEQAKIGLAQLKLQMEKIDEAIELFEDSAILARTMDEKLQATTFAEAAKIQKRLRADPIISAKMELTLARYRAKGML	soluble
MSLEMGMNWTHTPLALSALMFAMAAQATPNQATDAVAPEQATGFEHKSLVKAKNWMVTAANPLASEAGASILRQGGNAIDAMVTTQLMLGLVEPQSSGIGGGSFLVYWDAKKKALTTFDGRETAPLNATPELFLDSTGQPMKFYDAVVGGRSVGTPGTVKLLWETHRQYGKLEWARLIEPVAKLAEQGFEVSPRLAALIAEDKERLGRFPATKAYFFDAQGEPLTAGTLLKNPDYAATLRAIAQQGASAFYQGDIAKDIIATVQNAPGNPGVLAQQDFDTYQVKQRAPVCAAYQSYQVCGMGLPSSGGLTVGQILALTEQYDLKGWGAQDVKSWQVLGDASQLAFADRGLYMADQDYVPVPTQGLLDKTYLAERAKLIQPGKALTSAPAGNPPWHHAQLRSPDQSIELPSTSHFNIVDREGNVVSFTTSIENAFGSRLLVRGFLLNNELTDFSFATQSEGRPIANRLEPGKRPRSSMAPTIVLQDNQPYLAIGSPGGSRIIGYVAQAIVAHTQWGMNIQAAINQPHVLNRFGEIELEQGTSAEQFKPALESLGAKVGIKELNSGLHAIRITAQGLEGAADPRREGVAIGEGHHHHHH	not soluble
MHLYDKRPGGGASFSQILGQAKNRQGIFFNTTFAVMGHVAKASGRVTETDIRIATLLMDQMRLTGDARKEAQQAFREGKEPDFDLCSSLQAFRAVTQGRQELVQMFIEIQIQTALSDGELDAAEHAILMTVAQELGYGRLEHHHHHH	not soluble
MPQIYFSAAERRPKFVMKTGLSATEKNEVIKAAYRQIFERDITRAYSLSISDLESKVKNGDISMKEFVRRLAKSPLYQKQFYQPFINSRVIELAFRHILGRGPSSREEVQKYFSIISNGGLPALVDALVDSAEYSDYFGEETVPYLRGLEHHHHHH	soluble
MAHHHHHHMPYIASIDQGTTSSRCIIFDEKFTILSAHQLFHKQITPRPGWLEHDPEEIYSNCCLCLAEALKKLRSKDPKFEKVSAIGITNQRETGVAWDRKTGKPLCNAIVWSDARTYEVSNRIAKECGGGDRNFAANITGLPVSTYFTAFKFRWMLENVPAVAAARKSGSLLLGTIETWLLWKLSEGKVFLTDVSNASRTFLMNLRTQQWCDKLCQELDIPLAALPEIRSNSERYCDVVANDHGIRDALGVPTPVTGCIGDQQSALFGHIGLHKGDAKNTYGTGCFMLMNVGTEPQFSKHGLLGTIAYKLGTEPTKFALEGSVAGAGATVEWMRSNLGFFDHPMQMESIARKVGGTDGVVFVPAFGGLLAPYWDPTARGTLVGMTYKTNKSHIIRAALEAISMQVNAVMLAMKEDSGVEMNCLRVDGGLTRSRLLMEMQADILGVNLYVPHLTETTALGAALCAGLAVGVWKSVEEMQKTAKEHLSGETVNPITTDEQVRKARLEAWNAAVKLSRWAKL	soluble
MNEMPVQPTPAPPVDAPSPDGDRDLFGWRVRADLPLPELPVWAGDGRAPDILIRVAAVSPLDDGAQVFSPRIRFIEATLCFDVPDVARYRVDGGHLVTIEAARGIAADAPEIRLFFFGTVLAVLCFRRGLIPLHASAVALDGRALLLSGESGTGKSTLAAALLARGYPLLSDDLCALDVSCPDKPMILPCTAHLKLWGDAAARLGIATDGMTPVRRHLDKFRIPVRSASDAPLGPGTIIRLKRVTRAEQVGTRPLLGAEALCYDLIHRFRLGIALGYQSTMLTALAPLVRSAPIIQLNRRDDLGALPDLADHVIRLARDERRDLEHHHHHH	not soluble
LAMVDNLQGDSGRGYYLEMLIGTPPQKLQILVDTGSSNFAVAGTPHSYIDTYFDTERSSTYRSKGFDVTVKYTQGSWTGFVGEDLVTIPKGFNTSFLVNIATIFESENFFLPGIKWNGILGLAYATLAKPSSSLETFFDSLVTQANIPNVFSMQMCGAGLPVAGSGTNGGSLVLGGIEPSLYKGDIWYTPIKEEWYYQIEILKLEIGGQSLNLDCREYNADKAIVDSGTTLLRLPQKVFDAVVEAVARASLIPEFSDGFWTGSQLACWTNSETPWSYFPKISIYLRDENSSRSFRITILPQLYIQPMMGAGLNYECYRFGISPSTNALVIGATVMEGFYVIFDRAQKRVGFAASPCAEIAGAAVSEISGPFSTEDVASNCVPA	soluble
MSLCDQKNDTLQGKQNNMTAFIKKIAASKESEETQRYVGNLNGIEIKLTYYYKGDIVLRQISEHKLLYKTLKANNKEEAQKMLSQVGEAYQGMPGLTERIDYYDSYATEYVDINFTQAKISDLCKLPGSSIDNCSAYYLSMIRSQKLLEESGYHRINEGHHHHHH	soluble
MRIEVTIAKTSPLPAGAIDALAGELSRRISHHFPENLGNVTVRYATANNLSVIGASKEDKERISEILQETWESADDWFINE	not soluble
MASATARGLRKRLTPQEARLWAGLRELKLRGYHFRRRAPIGCYVVDFVCLSAKLVIDADGEQQAMPAHFAADRQRGVVLRRQGFRVLHFWNSDIDRYFEGVMQTVLDALPPPSVRPNVSRTGHSIHEGAGESG	soluble
MAMYEQRYNSPFLVHDDGPNAPLEHQFAISKLTFELGLLYYQKRTIPFIPLPETPLNEGPGHAVPDVILYDAVAEDTKVIIEVCQNNGQKNDLKKVIRLIEDTEYGILEGFVYNYKSREWFRYRKGDGGAATASSVSEVMGIDMGGFV	not soluble
MSLAMNNILGLFAHSPLKPLQKHSEKVTECSDLLIPFFQTTFSKNWEQAEEKRLEISQCEREADSLKREIRLKLPRGLFLPIDRTDLLELVTQQDKLANYAKDIAGRMIGRQFGIPEEMQEEFLHYVKRSLDAIHQAHRVIEEMDKLLETGFKGRELKLVNDMIQELDSIEDDTDQMQIKLRKMLYTIESRYNPIDVMFLYKIIEWVGVLADQAQRVGSRIELMLARSEGHHHHHH	soluble
MSLAQQSYPNKPIRVIVPFAAGSTTDIIARAIADKMGQSMGQSLVVDNRSGASGTIGQQAVATAPADGYTLMVHSSSHTVSPSTFAKLPFDTQADFAGVTPISSLPNALVIAPAKNIRTLQALLAAARARPGSINFASAGQGSATHLNAEKFRLAARIEATNIPFKGSAEAVTEVLSGRVDYYFSPIAPVIGQIRDGQLLALAVGSPKRAAALPEVPTTAEAGVPGSEFNFWIGMMAPAKTPRAIVERLHDEVVKALATPEVKERFLKLGADAWTLRPEQFDAYIKQEIASNAQLVQAAGLQVPQEGHHHHHH	soluble
MGSDKIHHHHHHMAENNTPQETEQDQEARFREEFEVGGKDRQLSEEEQLEQLGSYIDAHYPVPDFTPPWAGGAGDPDPADRYIAHLPDRTTHTAMIMLGSGLDHSMPGVAFIGGVSVDDVPEVGGAIFHPSNPTGRWAVSFHSGGWWRGSGDALEFQWRPEVAAAAELSGTTILDLDYPLAPGHNLHDMNEVVGKAVGYARHHNPVSITGWGYSSGAALAAINASLFDALVLTFPDLGSVEKLPAEIRGDAVVPAAAAWPTTFVQIAAQDEIAERPGELGDATVKEYVSRHRISTPKVAREKITDVAEFLKTVC	not soluble
MSEFNEKPEKLIVDGLRLDGRKFDELRPIKIEASVLKRADGSCYLEMGKNKVIAAVFGPREVHPRHLQDPSKAIIRYRYNMAPFSVEERKRPGPDRRSIEISKVSKEAFEAVIMKELFPRSAIDIFVEVLQADAGSRTACLNAASVALVDAGVPMKGMITSVAVGKADGQLVLDPMKEEDNFGEADMPFAFLIRNGKIESIALLQMDGRMTRDEVKQAIELAKKGALQIYEMQREAILRRYIEVGEEMDEITEGGEDA	soluble
MSLSRILFLTDLHWDHDYLEGTDPDCADPLCCRRGSGLPPASRPGAGYWGEYSKCDLPLRTLESLLSGLGPAGPFDMVYWTGDIPAHDVWHQTRQDQLRALTTVTALVRKFLGPVPVYPAVGNHESTPVNSFPPPFIEGNHSSRWLYEAMAKAWEPWLPAEALRTLRIGGFYALSPYPGLRLISLNMNFCSRENFWLLINSTDPAGQLQWLVGELQAAEDRGDKVHIIGHIPPGHCLKSWSWNYYRIVARYENTLAAQFFGHTHVDEFEVFYDEETLSRPLAVAFLAPSATTYIGLNPGYRVYQIDGNYSGSSHVVLDHETYILNLTQANIPGEGHHHHHH	soluble
MQFYNRQKELKLMELLDQGKPSFFVITGKRRVGKTELIKQFTRNRKALYLFVDSNKSINILMDEFDRLLKEKLDLPDYIKVDEPENFLKFITSYDRDLVIAIDEFQRFQKVYPSFITQLQRYWDMKPDNCRIFLIVSGSSIGMIRKIFIEEQAPLFKRADNILTIKPFTVLETFEMLDGMGIKNPEEKLNLYFLFGGTVYYYRLFEKYQCTGFDDALEKLIFSEFAPLKNEVREILIEEFGKEHSTYYEIISAISQGRCSMSEISDMTHVSSSSLSPYFYDLIDLLGVVEHRIPVMDNPEKSKRGRYFLKDNFFRFYGRFIYPMYSRYMAGNYSPMLEKVRKEWQSYTGKIFEDIVHELLVEKMISDYPELGSWWNRKGDEIDILGVDHRGRKSLVIEVKNKELAENEAREILELTLDKTKLVKGISGQKLKVGIVAQKVKGRKNLEDDGFLVWELEELIPLEHHHHHH	not soluble
